Assay results published in patent US20220332795A1 (ARO BIOTHERAPEUTICS, published 2022).

How the values were obtained:
[1] = target: T1, recombinant biotinylated human CD71 extracellular domain (human, UniProt P02786 89-760, biotinylated); test: solution ELISA
T1 construct: extracellular domain; also called hCD71; huCD71 ECD

CD71 apical domain [2] = target: T2, CD71 apical domain (UniProt P02786 189-383, limits assumed); test: solution ELISA
T2 construct: domain: Apical domain

[3] = target: T1, recombinant biotinylated human CD71 …; test: solution ELISA, signal ratio to HSA
CD71 apical domain [4] = target: T2, CD71 apical domain; test: solution ELISA, signal ratio to HSA

T1 sequence (P02786 other isoform, or with tags, fused parts or gaps): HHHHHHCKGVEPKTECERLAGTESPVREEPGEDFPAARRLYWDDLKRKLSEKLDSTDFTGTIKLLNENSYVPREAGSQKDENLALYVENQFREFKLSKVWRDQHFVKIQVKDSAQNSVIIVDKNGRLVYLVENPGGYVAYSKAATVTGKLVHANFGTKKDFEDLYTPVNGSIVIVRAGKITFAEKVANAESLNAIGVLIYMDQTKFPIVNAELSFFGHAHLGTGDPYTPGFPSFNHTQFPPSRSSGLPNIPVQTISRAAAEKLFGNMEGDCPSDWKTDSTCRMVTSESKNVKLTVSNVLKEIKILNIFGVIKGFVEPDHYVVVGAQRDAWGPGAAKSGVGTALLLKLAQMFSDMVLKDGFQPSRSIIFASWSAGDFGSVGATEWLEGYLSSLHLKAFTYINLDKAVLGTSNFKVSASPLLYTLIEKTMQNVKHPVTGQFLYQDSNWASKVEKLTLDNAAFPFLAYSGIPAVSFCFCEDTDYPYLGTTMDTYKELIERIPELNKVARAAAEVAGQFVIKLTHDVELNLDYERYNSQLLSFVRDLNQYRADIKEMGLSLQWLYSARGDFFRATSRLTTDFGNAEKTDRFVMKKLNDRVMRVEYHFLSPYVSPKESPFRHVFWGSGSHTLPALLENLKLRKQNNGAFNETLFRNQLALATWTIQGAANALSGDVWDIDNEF
T2 sequence (P02786 189-383 limits assumed): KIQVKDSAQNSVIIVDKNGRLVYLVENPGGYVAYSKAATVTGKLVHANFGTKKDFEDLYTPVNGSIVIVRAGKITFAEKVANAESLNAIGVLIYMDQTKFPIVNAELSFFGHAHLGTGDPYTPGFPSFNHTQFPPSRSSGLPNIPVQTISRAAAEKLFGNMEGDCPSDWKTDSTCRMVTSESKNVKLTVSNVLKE

| Binder | hCD71, RLU [1] | Apical domain, RLU (CD71 apical domain [2]) | hCD71:HSA [3] | apical domain:HSA (CD71 apical domain [4]) |
| --- | --- | --- | --- | --- |
| SEQ ID NO 130 (designed binder, FN3 domain) MLPAPKNLVVSRVTEDSARLSWTAPDAAFDSFVIEYFEWTLNGEAIVLTVPGSERSYDLTGLKPGTEYSVQIYGVKGGCLSRPLSAIFTT | 1.61e+06 RLU | 106000 RLU | 13.2 | 0.9 |
| SEQ ID NO 107 (designed binder, FN3 domain) MSLPAPKNLVVSRVTEDSARLSWTAPDAAFDSFYIAYAEPRPDGEAISLYVPGSERSYDLTGLKPGTEYSVLIHGVKGGLLSSPLSAISTT | 1.36e+06 RLU | 5.99e+06 RLU | 21.8 | 95.8 |
| SEQ ID NO 109 (designed binder, FN3 domain) MLPAPKNLVVSRVTEDSARLSWTAPDAAFDSFHISYEEDYTFGEAIYLRVPGSERSYDLTGLKPGTEYRVVIGGVKGGWFSEPLLAAFTT | 5.33e+06 RLU | 28300 RLU | 138 | 0.7 |
| SEQ ID NO 174 (designed binder, FN3 domain) MLPAPKNLVVSRVTEDSARLSWTAPDAAFDSFFIGYLEPQPPGEAIQLWVPGSERSYDLTGLKPGTEYNVTIQGVKGGFPSMPLSAIFTT | 1.9e+06 RLU | 4.83e+06 RLU | 61.7 | 157 |
| SEQ ID NO 110 (designed binder, FN3 domain) MLPAPKNLVVSRVTEDSARLSWTAPDAAFDSFFIGYLEPQPPGEAIYLTVPGSERSYDLTGLKPGTEYNVTIQGVKGGFPSYPLDASFTT | 636000 RLU | 803000 RLU | 60 | 75.8 |
| SEQ ID NO 126 (designed binder, FN3 domain) MLPAPKNLVVSRVTEDSARLSWTAPDAAFDSFFIGYLEPQPPGEAIHLHVPGSERSYDLTGLKPGTEYNVTIQGVKGGFPSIPLHANFTT | 2.74e+06 RLU | 4.42e+06 RLU | 85 | 137 |
| SEQ ID NO 114 (designed binder, FN3 domain) MLPAPKNLVVSRVTEDSARLSWTTPDAAFDSFFIGYLEPQPPGEAISLQVPGSERSYDLTGLKPGTEYNVTIQGVKGGFPSSPLFAVFTT | 2.6e+06 RLU | 6.22e+06 RLU | 121 | 289 |
| SEQ ID NO 121 (designed binder, FN3 domain) MLPAPKNLVVSRVTEDSARLSWTAPDAAFDSFFIGYLEPQPPGEAIALWVPGSERSYDLTGLKPGTEYNVTIQGVKGGFPSMPLSAIFTT | 4.77e+06 RLU | 6.18e+06 RLU | 269 | 348 |
| SEQ ID NO 108 (designed binder, FN3 domain) MLPAPKNLVVSRVTEDSARLSWTAPDAAFDSFFIGYLEPQPPGEAIQLRVPGSERSYDLTGLKPGTEYNVTIQGVKGGFPSMPLSAIFTT | 932000 RLU | 2.44e+06 RLU | 69.6 | 182 |
| SEQ ID NO 123 (designed binder, FN3 domain) MLPAPKNLVVSRVTEDSARLSWTAPDAAFDSFFIGYLEPQPPGEAIQLWVPGSERSYDLTGLKPGTEYNVTIQGVKGGFPSHPLGAVFTT | 1.25e+06 RLU | 4.78e+06 RLU | 42.7 | 163 |
| SEQ ID NO 111 (designed binder, FN3 domain) MLPAPKNLVVSRVTEDSARLSWTAPDAAFDSFFIGYLEPQPPGEAIDLGVPGSERSYDLTGLKPGTEYNVTIQGVKGGFPSMPLDPLEAYFTT | 2.41e+06 RLU | 113000 RLU | 17.9 | 0.8 |
| SEQ ID NO 115 (designed binder, FN3 domain) MLPAPKNLVVSRVTEDSARLSWTAPDAAFDSFYIAYAEPRPDGEAIELHVPGSERSYDLTGLKPGTEYSVLIHGVKGGLLSSPLFTT | 3.47e+06 RLU | 150000 RLU | 20.1 | 0.9 |

The next lines start with the values.

| hCD71, RLU [1] | Apical domain, RLU (CD71 apical domain [2]) | hCD71:HSA [3] | apical domain:HSA (CD71 apical domain [4]) | Binder |
| --- | --- | --- | --- | --- |
| 4.04e+06 RLU | 120000 RLU | 27.9 | 0.8 | SEQ ID NO 184 (designed binder, FN3 domain) MLPAPKNLVVSRVTEDSARLSWTAPDAAFDSFFIGYLEPQPPGEAIDLAVPGSERSYDLTGLKPGTEYSVLIHGVKGGLLSSPLSFTT |
| 796000 RLU | 77900 RLU | 10.9 | 1.1 | SEQ ID NO 187 (designed binder, FN3 domain) MLPAPKNLVVSRVTEDSARLSWTAPDAAFDSFFIGYLEPQPPGEAISLLVPDSERSYDLTGLKPGTEYNVTIQGVKGGFPSMPLKFTT |
| 1.51e+06 RLU | 5.47e+06 RLU | 58.6 | 212 | SEQ ID NO 202 (designed binder, FN3 domain) MLPAPKNLVVSRVTEDSARLSWTAPDAAFDSFDIGYTEYGGYGEAILHVPGSERSYDLTGLKPGTEYWVLIQGVKGGGSSVPLSAIFTT |
| 638000 RLU | 93100 RLU | 17 | 2.5 | SEQ ID NO 162 (designed binder, FN3 domain) MLPAPKNLVVSRVTEDSARLSWTAPDAAFDSFYIAYAEPRPDGEAIKLEVPGSERSYDLTGLKPGTEYSVLIHGVKGGLLSSPLAIFTT |
| 377000 RLU | 353000 RLU | 13.4 | 12.5 | SEQ ID NO 172 (designed binder, FN3 domain) MLPAPKNLVVSRVTEDSARLSWTAPDAAFDSFFIGYLEPQPPGEAIVLTVPGSERSYDLTGLKPGTEYNVTIQGVKGGFPSMPLASFTT |
| 416000 RLU | 5.56e+06 RLU | 24.3 | 324 | SEQ ID NO 199 (designed binder, FN3 domain) MLPAPKNLVVSRVTEDSARLSWTAPDAAFDSFYIAYAEPRPDGEAIHLWVPGSERSYDLTGLKPGTEYSVLIHGVKGGLLSSPLHADFTT |
| 930000 RLU | 6.1e+06 RLU | 51.6 | 339 | SEQ ID NO 200 (designed binder, FN3 domain) MLPAPKNLVVSRVTEDSARLSWTAPDAAFDSFYIAYAEPRPDGEAIWLEVPGSERSYDLTGLKPGTEYSVLIHGVKGGLLSSPLVADFTT |
| 3.25e+06 RLU | 7.5e+06 RLU | 14 | 32.2 | SEQ ID NO 201 (designed binder, FN3 domain) MLPAPKNLVVSRVTEDSARLSWTAPDAAFDSFYIAYAEPRPDGEAISLWVPGSERSYDLTGLKPGTEYSVLIHGVKGGLLSSPLLAHFTT |
| 2.97e+06 RLU | 4.36e+06 RLU | 123 | 181 | SEQ ID NO 142 (designed binder, FN3 domain) MLPAPKNLVVSRVTEDSARLSWTAPDAAFDSFFIGYLEPQPPGEAIGLQVPGSERSYDLTGLKPGTEYNVTIQGVKGGFPSHPLKAQFTT |
| 603000 RLU | 317000 RLU | 27.9 | 14.6 | SEQ ID NO 140 (designed binder, FN3 domain) MLPAPKNLVVSRVTEDSARLSWTAPDAAFDSFFIGYLEPQPPGEAIQLEVPGSERSYDLTGLKPGTEYNVTIQGVKGGFPSMPLSAIFTT |
| 1.49e+06 RLU | 1.8e+06 RLU | 66.5 | 80.4 | SEQ ID NO 173 (designed binder, FN3 domain) MLPAPKNLVVSRVTEDSARLSWTAPDAAFDSFHIVYHEPRPSGEAIHLQVPGSERSYDLTGLKPGTEYNVTIQGVKGGFPSYPLSAFFTT |
| 313000 RLU | 74500 RLU | 11.5 | 2.7 | SEQ ID NO 163 (designed binder, FN3 domain) MLPAPKNLVVSRVTEDSARLSWTAPDAAFDSFFIGYLEPQPPGEAIYLEVPGSERSYDLTGLKPGTEYNVTIQGVKGGFPSFPLKAAFTT |
| 3.86e+06 RLU | 4.66e+06 RLU | 119 | 143 | SEQ ID NO 191 (designed binder, FN3 domain) MLPAPKNLVVSRVTEDSARLSWTAPDAAFDSFFIGYLEPQPPGEAIILAVPGSERSYDLTGLKPGTEYNVTIQGVKGGFPSLPLVASFTT |
| 1.23e+06 RLU | 4.04e+06 RLU | 45.2 | 149 | SEQ ID NO 151 (designed binder, FN3 domain) MLPAPKNLVVSRVTEDSARLSWTAPDAAFDSFFIGYLEPQPPGEAIQLWVPGSERSYDLTGLKPGTEYNVTIQGVKGGFPSRPLQAHFTT |
| 1.13e+06 RLU | 1.86e+06 RLU | 73.8 | 121 | SEQ ID NO 139 (designed binder, FN3 domain) MLPAPKNLVVSRVTEDSARLSWTAPDAAFDSFFIGYLEPQPPGEAIQLGVPGSERSYDLTGLKPGTEYNVTIQGVKGGFPSHPLNANFTT |
| 3.69e+06 RLU | 4.77e+06 RLU | 155 | 201 | SEQ ID NO 136 (designed binder, FN3 domain) MLPAPKNLVVSRVTEDSARLSWTAPDAAFDSFFIGYLEPQPPGEAIWLHVPGSERSYDLTGLKPGTEYNVTIQGVKGGFPSIPLIAIFTT |
| 1.77e+06 RLU | 7.58e+06 RLU | 79.9 | 342 | SEQ ID NO 192 (designed binder, FN3 domain) MLPAPKNLVVSRVTEDSARLSWTAPDAAFDSFDIGYTEYGGYGEAIYLSVPGSERSYDLTGLKPGTEYWVLIQGVKGGGSSVPLSAIFTT |
